Measurements: patent publication US20210146029A1

Biological target: sTNF-R1 (soluble Tumor Necrosis Factor Receptor 1), spiked into buffer or human plasma (UniProt P19438)
Experiment: column run with spiked human plasma (9.74 ng/mL sTNF-R1), pre- against post-column concentration at each time point

Sequence of UniProt P19438 (P19438 30-211 limits assumed): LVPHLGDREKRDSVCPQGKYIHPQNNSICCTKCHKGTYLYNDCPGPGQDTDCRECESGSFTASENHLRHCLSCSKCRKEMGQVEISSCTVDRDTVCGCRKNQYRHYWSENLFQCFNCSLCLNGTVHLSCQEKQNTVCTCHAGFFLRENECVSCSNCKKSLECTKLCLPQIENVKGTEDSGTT

Work on “recombinant single chain TNFα ligand (sc-TNFα ligand, comprising 3 TNFα monomers), covalently linked to agarose beads” yielded a binding efficiency of over 95%.
